Source: patent US20210324050A1 (VANDERBILT UNIVERSITY, published 2021)

Experiments:
[1] = biological target: T1, GII.4 Houston 2002 (ABY27560.1) VLPs (human norovirus GII.4 Houston 2002, UniProt P54635 1-539); experiment: ELISA on GII.4 Houston 2002 VLPs against ELISA on GII.4 Sydney 2012 VLPs
T1 construct: also called GII.4 Houston 2002 antigen; GII.4 Houston VLPs
T1 chain: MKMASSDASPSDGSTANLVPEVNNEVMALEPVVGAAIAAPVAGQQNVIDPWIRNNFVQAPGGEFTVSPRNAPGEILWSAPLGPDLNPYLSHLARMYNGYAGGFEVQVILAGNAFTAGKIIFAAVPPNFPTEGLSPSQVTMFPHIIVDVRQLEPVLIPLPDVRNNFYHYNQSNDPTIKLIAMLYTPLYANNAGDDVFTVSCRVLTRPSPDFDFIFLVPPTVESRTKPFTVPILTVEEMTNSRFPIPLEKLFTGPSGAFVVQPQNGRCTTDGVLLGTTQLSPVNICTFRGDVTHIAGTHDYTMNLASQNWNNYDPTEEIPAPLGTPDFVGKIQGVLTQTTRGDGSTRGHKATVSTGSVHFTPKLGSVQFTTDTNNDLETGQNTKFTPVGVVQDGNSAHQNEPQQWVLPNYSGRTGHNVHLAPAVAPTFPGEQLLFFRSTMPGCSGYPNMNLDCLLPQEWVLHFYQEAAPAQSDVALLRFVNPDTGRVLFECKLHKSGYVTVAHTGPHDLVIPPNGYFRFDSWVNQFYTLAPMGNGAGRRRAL

[2] = biological target: T2, GII.4 Sydney 2012 virus-like particles (VLPs), based on strain AFV08795.1 (human norovirus GII.4 Sydney 2012, UniProt P54635 1-538); experiment: indirect ELISA on coated GII.4 Sydney 2012 VLPs
T2 construct: also called GII.4 VLPs
T2 chain: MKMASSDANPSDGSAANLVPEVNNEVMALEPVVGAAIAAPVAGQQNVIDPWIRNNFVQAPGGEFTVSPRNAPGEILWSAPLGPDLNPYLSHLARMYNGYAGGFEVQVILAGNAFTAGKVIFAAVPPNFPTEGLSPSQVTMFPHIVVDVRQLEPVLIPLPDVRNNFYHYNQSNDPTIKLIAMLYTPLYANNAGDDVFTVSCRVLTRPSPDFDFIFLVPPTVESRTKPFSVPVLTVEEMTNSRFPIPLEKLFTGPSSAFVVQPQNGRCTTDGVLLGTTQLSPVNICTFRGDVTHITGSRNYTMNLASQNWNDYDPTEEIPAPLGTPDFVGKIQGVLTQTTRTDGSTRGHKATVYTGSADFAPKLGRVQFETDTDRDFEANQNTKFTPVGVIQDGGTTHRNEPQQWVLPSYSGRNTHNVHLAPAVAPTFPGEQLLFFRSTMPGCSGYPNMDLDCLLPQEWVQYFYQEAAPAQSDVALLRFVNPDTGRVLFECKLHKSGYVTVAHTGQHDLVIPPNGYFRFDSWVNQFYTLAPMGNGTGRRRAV

GI.1 (M87661) VLPs = biological target: T3, GI.1 (M87661) VLPs (norovirus GI.1, UniProt Q83884 1-530; Q83885 1-212); experiment: indirect ELISA on VLPs
T3 sequence (VP1): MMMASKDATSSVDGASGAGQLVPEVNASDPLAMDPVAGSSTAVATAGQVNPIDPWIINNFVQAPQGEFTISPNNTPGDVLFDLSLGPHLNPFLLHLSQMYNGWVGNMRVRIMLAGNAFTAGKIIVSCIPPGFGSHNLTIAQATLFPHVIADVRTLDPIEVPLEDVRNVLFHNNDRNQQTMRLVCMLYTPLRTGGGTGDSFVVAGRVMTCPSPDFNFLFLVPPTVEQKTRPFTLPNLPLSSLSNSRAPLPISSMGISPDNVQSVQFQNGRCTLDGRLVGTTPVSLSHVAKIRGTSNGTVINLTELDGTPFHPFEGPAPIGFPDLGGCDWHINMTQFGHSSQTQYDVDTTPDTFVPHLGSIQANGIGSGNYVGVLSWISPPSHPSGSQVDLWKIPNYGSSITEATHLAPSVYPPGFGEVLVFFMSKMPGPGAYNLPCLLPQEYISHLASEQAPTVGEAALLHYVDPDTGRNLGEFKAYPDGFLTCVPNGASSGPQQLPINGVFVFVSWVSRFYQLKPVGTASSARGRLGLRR
T3 sequence (VP2): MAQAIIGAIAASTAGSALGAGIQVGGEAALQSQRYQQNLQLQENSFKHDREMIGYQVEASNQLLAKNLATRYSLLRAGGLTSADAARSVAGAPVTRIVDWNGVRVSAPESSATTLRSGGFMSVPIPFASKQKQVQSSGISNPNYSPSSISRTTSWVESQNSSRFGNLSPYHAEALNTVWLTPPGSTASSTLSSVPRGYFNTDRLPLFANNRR

[3] = biological target: T1, GII.4 Houston 2002 (ABY27560.1) VLPs; experiment: ELISA on GII.4 Houston 2002 VLPs
[4] = biological target: T4, GII.4 Sydney 2012 shell (S) domain (human norovirus GII.4 Sydney 2012, UniProt P54635 1-221 (Lordsdale virus entry), limits assumed); experiment: indirect ELISA on recombinant P and S domains
T4 construct: Recombinant S domain particles (pVL1392, baculovirus, Sf9); the whole VP1 entry is named; also called GII.4 S domain
T4 chain: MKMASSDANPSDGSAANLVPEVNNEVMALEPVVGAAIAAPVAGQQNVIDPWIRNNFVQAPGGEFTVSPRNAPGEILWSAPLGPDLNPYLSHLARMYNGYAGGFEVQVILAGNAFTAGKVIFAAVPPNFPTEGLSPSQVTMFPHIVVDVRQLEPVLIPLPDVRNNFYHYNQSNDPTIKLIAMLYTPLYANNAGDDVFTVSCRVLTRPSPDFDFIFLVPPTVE

B1: NORO-115 (antibody, V domains shown)
VH: QVQLVESGGGLVKPGGSLRLSCTASGITISGYYMSWIRQAPGKGLEWIVYINTSGRTIYYADSVKGRFSVSRDNAKESLYLQMDSLTVDDTGIYYCARDRLPASGSHWFHPWGQGTLVTVSS
VL: DIVMTQSPDSLAVSLGGRATINCKSSQSVLYTSDNKNYLAWYQQQPGQPPKLLISWASTRESGVPDRFSGSGSGTDFTLTISNLQAEDVAVYYCQQYYNSPLAFGGGTKVEIK
Q: B1 was tested. Which “fold higher binding EC50 compared to GII.4 Sydney 2012 VLPs” value [1] did it give?
A: > 10 fold

B2: NORO-202A.1 (antibody, V domains shown)
VH: QVQLVQSGAEVKKPGASVKVSCKASEYTFTGYYLQWVRQAPGHGLEWMGWINPSGGTKYSQKFQGRVTMTRDTSITTVYMELSRLRSDDTAVYYCARDLLRNWGDHDAFDVWGQGTMVTVSS
VL: QSVLTQPPSASETPGQGVTISCSGSSSNIGSNFVCWYQQVPGTAPKLLIYKNNQRPSGVPDRFSGSKSGTSASLAISGLRSEDEADYYCSAWDDSLSGPVFGGGTKLTVL
Q: What does the source list for B2?
A: EC50 [2]: 0.4 µg/mL; binding result (GI.1 (M87661) VLPs): no binding (tested: 500 nM); binding result [3]: binds

B3: NORO-156.3 (antibody, V domains shown)
VH: QVQLQQWGAGLLKPSETLSLTCAVYGGSFSGYYWSWIRQPPGKGLEWIGEINHSGSTNYNPSLKSRVTISVDTSKNQFSLKLSSVTAADTAVYYCARGLMDVWGQGTLVTVSS
VL: AIRMTQSPSSFSASTGDRVTITCRASQGISSYLAWYQQKPGKAPKLLIYAASTLQSGVPSRFSGSGSGTDFTLTISCLQSEDFATYYCQQYYSYPRTFGQGTKLEIK
Q: What does the source list for B3?
A: binding result [4]: no binding (tested: 500 nM); binding result (GI.1 (M87661) VLPs): binds
